# Test results from article doi:10.1101/2022.02.27.482175, “Transient DNA binding to gapped DNA substrates links DNA sequence to the single-molecule kinetics of protein-DNA interactions”.
# Substitutions are numbered along the chain they refer to.
# B1: CAPcons DNA (GSeq-CAP-(1-49)) (dsDNA)
# DNA 1: GTGCCTAAAATGTGATCTAGATCACATTTATTGCGTAGAGCTCACTGCC
# DNA 2: GGCAGTGAGCTCTACGCAATAAATGTGATCTAGATCACATTTTAGGCAC
# B2: CAPmut1 DNA (GP25/CP25) (dsDNA)
# DNA 1: B1 DNA 1 with C25G
# DNA 2: B1 DNA 2 with G25C
# B3: CAPmut2 DNA (GP25,CP38) (dsDNA)
# DNA 1: B1 DNA 1 with G12C, C25G
# DNA 2: B1 DNA 2 with G25C, C38G
# What was measured:
# Settings in all cases: protein: recombinant; tags: His6; Alexa647 label; chain copies: 2; label: 5' biotin strand 1; Cy3B on strand 2 (position 13); blunt
# [1] = biological target: T1, CAP (catabolite activator protein), Alexa647-CAP (UniProt P0ACJ8 2-210, H18C;C179S); assay: single-molecule TIRF (koff/kon); 0.2 mM cAMP, 10 mM Mg2+; kon 9.73e6 M-1s-1, t2 8.45 s; 1.5 nM CAP, 0.2 mM cAMP, 40 mM Tris pH 8, 100 mM KCl, 10 mM MgCl2, 5% glycerol, 1 mM TROLOX, glucose oxidase/catalase oxygen scavenger (Methods also lists 40% glucose), 27-30 C
# [2] = biological target: T1, CAP (catabolite activator protein), …; assay: single-molecule TIRF (koff/kon); 0.2 mM cAMP, 10 mM Mg2+; kon 8.74e6 M-1s-1, t2 5.2 s; 1.5 nM CAP, 0.2 mM cAMP, 40 mM Tris pH 8, 100 mM KCl, 10 mM MgCl2, 5% glycerol, 1 mM TROLOX, glucose oxidase/catalase oxygen scavenger (Methods also lists 40% glucose), 27-30 C
# [3] = biological target: T1, CAP (catabolite activator protein), …; assay: single-molecule TIRF (koff/kon); 0.2 mM cAMP, 10 mM Mg2+; kon 10.24e6 M-1s-1, t2 3.3 s; 1.5 nM CAP, 0.2 mM cAMP, 40 mM Tris pH 8, 100 mM KCl, 10 mM MgCl2, 5% glycerol, 1 mM TROLOX, glucose oxidase/catalase oxygen scavenger (Methods also lists 40% glucose), 27-30 C
binder,measurement,setting,value
B1,Kd,[1],~12 nM
B2,Kd,[2],~22 nM
B3,Kd,[3],~30 nM
